# Test results as given in patent publication US20230053449A1, “DC-SIGN ANTIBODY DRUG CONJUGATES” (NOVARTIS AG, priority 2018, published 2023).
# T1: L-SIGN (Homo sapiens, UniProt Q9H2X3)
# T1 construct: expressed in transfected cells; host or cells: K562 (retroviral transduction)
# T1 sequence (Q9H2X3 1-399): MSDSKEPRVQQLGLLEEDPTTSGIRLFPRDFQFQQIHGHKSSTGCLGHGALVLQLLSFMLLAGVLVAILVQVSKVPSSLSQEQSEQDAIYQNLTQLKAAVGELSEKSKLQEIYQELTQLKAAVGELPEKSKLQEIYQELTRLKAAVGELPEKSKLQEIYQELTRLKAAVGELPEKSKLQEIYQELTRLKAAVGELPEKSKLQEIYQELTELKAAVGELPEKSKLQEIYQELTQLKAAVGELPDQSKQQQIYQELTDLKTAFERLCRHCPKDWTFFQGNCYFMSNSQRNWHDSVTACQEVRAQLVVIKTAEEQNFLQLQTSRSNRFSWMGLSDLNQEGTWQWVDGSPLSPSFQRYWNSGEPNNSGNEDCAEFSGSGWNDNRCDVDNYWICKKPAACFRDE
# T2: cynomolgus monkey DC-SIGN, full length, stably expressed on CHO cells (cynomolgus monkey, UniProt Q95J96 1-403 (rhesus entry))
# T2 construct: also called cyno DC-SIGN CHO
# T2 sequence: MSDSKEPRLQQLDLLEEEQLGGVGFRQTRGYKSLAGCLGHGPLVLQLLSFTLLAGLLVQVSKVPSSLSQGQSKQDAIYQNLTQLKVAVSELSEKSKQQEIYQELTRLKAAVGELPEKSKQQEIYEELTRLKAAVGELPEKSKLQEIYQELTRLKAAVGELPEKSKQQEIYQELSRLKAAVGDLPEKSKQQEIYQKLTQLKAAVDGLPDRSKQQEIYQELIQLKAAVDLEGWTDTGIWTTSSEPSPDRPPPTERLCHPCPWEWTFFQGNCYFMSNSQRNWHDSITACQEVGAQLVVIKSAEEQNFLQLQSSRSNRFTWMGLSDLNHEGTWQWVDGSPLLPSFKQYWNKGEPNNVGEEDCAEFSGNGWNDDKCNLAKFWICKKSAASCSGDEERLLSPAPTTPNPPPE
# T3: human DC-SIGN, full length, stably expressed on CHO or K562 cells (human, UniProt Q9NNX6 1-404)
# T3 construct: Also the native/transgenic human DC-SIGN on moDCs, macrophages and Tg+ mouse dendritic cells in the functional entries; also called human DC-SIGN CHO; human DC-SIGN K562
# T3 sequence: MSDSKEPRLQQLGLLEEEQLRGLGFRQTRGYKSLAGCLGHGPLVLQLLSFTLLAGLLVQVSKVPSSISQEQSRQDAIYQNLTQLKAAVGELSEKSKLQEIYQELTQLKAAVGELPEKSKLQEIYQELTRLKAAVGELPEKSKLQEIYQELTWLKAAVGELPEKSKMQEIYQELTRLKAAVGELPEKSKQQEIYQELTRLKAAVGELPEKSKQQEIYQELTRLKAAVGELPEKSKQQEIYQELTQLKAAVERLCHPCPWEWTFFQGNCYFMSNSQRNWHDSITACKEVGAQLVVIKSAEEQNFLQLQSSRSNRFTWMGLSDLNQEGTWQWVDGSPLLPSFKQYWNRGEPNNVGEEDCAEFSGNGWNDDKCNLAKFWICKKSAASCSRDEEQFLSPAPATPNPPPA
# Columns and labels:
# [1] = Aggregation by analytical size-exclusion chromatography (AnSEC); assay type: physicochemical; conditions: conjugate with linker-payload C-5
# Protocol: Conjugates were profiled using analytical size-exclusion chromatography (AnSEC) on Zenix C-300 3 um 7.8×150 mm column (Sepax Technologies). Alternatively, samples were tested on a KW-803 column (TIC Cat #6960940) Aggregation was analyzed based on analytical size exclusion chromatography and reported as the % monomer based on AUC of the assigned monomer peak.
# The sample shown below in Table 20 achieved >90% conjugation efficiency and >95% purity as assessed by AnSEC. This illustrates that conjugates of the invention can be made efficiently and have favorable characteristics.
# L-SIGN = target: T1, L-SIGN; experiment: FACS binding to L-SIGN expressing K562 cells
# Protocol: (§1) The affinity of various antibodies and ADCs to DC-SIGN and its species orthologues was determined using FACS. Purified IgGs were titrated to determine EC50 values for binding to cell surface expressed DC-SIGN.
# For this purpose, human DC-SIGN expressing or cynomolgus monkey DC-SIGN expressing stable CHO cell lines or K562 expressing DC-SIGN or K562 expressing L-SIGN cell lines were checked for density and viability using VICELL (Beckman Coulter), and washed once with 4° C. PBS. Cells were stained with DAPI (0.5 ug/mL) diluted in PBS for 30 min on ice. Cells were diluted into 4° C. FACS buffer (PBS, 10 mM EDTA, 2% FBS). 125 μl of cells were seeded (10,000 cells/well) into 96-well v-bottom plates (Nunc cat #442587) and centrifuged for 4 min at 1500 rpm at 4° C. Supernatant was removed. […] After the final wash, cells were resuspended in Fixative Buffer (Biolegend, 420801) and 90 μl of FACS buffer followed by readout on the flow cytometry machine (BD LSRFortessa Cell Analyzer; Cat #647177). Geometric Mean fluorescence intensity (MFI) of live, single cells was calculated in Flowjo 10.4.2 and exported into Graphpad Prism7 for EC50 determination.
# Selectivity was assessed by measuring apparent binding affinities to isogenic cell pairs engineered to overexpress DC-SIGN as well as cell lines expressing DC-SIGN paralog L-SIGN.
# [2] = target: T2, cynomolgus monkey DC-SIGN, full length, …; experiment: flow cytometry, CHO cells expressing cyno DC-SIGN
# Protocol: as §1
# (§2) For this purpose, human DC-SIGN expressing or cynomolgus monkey DC-SIGN expressing stable CHO cell lines or K562 expressing DC-SIGN or K562 expressing L-SIGN cell lines were checked for density and viability using VICELL (Beckman Coulter), and washed once with 4° C. PBS. Cells were stained with DAPI (0.5 ug/mL) diluted in PBS for 30 min on ice. Cells were diluted into 4° C. FACS buffer (PBS, 10 mM EDTA, 2% FBS). 125 μl of cells were seeded (10,000 cells/well) into 96-well v-bottom plates (Nunc cat #442587) and centrifuged for 4 min at 1500 rpm at 4° C. Supernatant was removed. […] Following incubation, cells were spun down (1500 rpm, 4 min, 4° C.) and washed two times with FACS buffer. A fluorophore-conjugated anti-hFc gamma-AF-647 (Southern Biotechnology) detection antibody was added at 1:400 dilution and samples were incubated for 1 h on ice in the dark.
# [3] = target: T3, human DC-SIGN, full length, stably …; experiment: flow cytometry, CHO cells expressing human DC-SIGN
# Protocol: as §1, §2
# [4] = target: T3, human DC-SIGN, full length, stably …; experiment: flow cytometry, K562 cells expressing human DC-SIGN
# Protocol: as §1, §2
molecule,measurement,setting,value
2B2 Chimeric (antibody) heavy: EVQLQQSGAELVRPGSSVKMSCKTSGYTFTNYGINWVKQRPGQGLEWIGYIYIGNDYTEYNERFKGKATLTSDTSSSTAHIQLNSLTSEDSAIYFCARLYYGSSLYSYAMDYWGQGTSVTVSSASTKGPSVFPLAPSSKSTSGGTAALGCLVKDYFPCPVTVSWNSGALTSGVHTFPAVLQSSGLYSLSSVVTVPSSSLGTQTYICNVNHKPSNTKVDKRVEPKSCDKTHTCPPCPAPELLGGPSVFLFPPKPKDTLMISRTPEVTCVVVAVSHEDPEVKFNWYVDGVEVHNAKTKPREEQYNSTYRVVSVLTVLHQDWLNGKEYKCKVSNKALAAPIEKTISKAKGQPREPQVYTLPPSREEMTKNQVSLTCLVKGFYPCDIAVEWESNGQPENNYKTTPPVLDSDGSFFLYSKLTVDKSRWQQGNVFSCSVMHEALHNHYTQKSLSLSPGK light: DIVMTQAAPSVSVTPGESVSISCRSSKSLLHSSGNTYLYWFLQRPGQSPQLLISRMSNLASGVPDRFSGSGSGTAFTLRISRVEAEDVGVYYCMQHLEYPYTFGGGTKLELKRTVAAPSVFIFPPSDEQLKSGTASVVCLLNNFYPREAKVQWKVDNALQSGNSQESVTEQDSKDSTYSLSSTLTLSKADYEKHKVYACEVTHQGLSSPVTKSFNRGEC,% Monomer,[1]; after preparative SEC,99%
same,% Monomer,[1]; before preparative SEC,95.4%
2B2 Hz: Humanization of Antibodies 2B2 and 1G12: variable region constructs were designed for humanization and optimization of sequences (antibody) heavy: QVQLVQSGAEVKKPGASVKVSCKASGYTFTNYGINWVRQAPGQRLEWMGYIYIGNDYTEYNERFKGRVTITSDTSASTAYMELSSLRSEDTAVYYCARLYYGSSLYSYAMDYWGQGTTVTVSSASTKGPSVFPLAPSSKSTSGGTAALGCLVKDYFPCPVTVSWNSGALTSGVHTFPAVLQSSGLYSLSSVVTVPSSSLGTQTYICNVNHKPSNTKVDKRVEPKSCDKTHTCPPCPAPELLGGPSVFLFPPKPKDTLMISRTPEVTCVVVAVSHEDPEVKFNWYVDGVEVHNAKTKPREEQYNSTYRVVSVLTVLHQDWLNGKEYKCKVSNKALAAPIEKTISKAKGQPREPQVYTLPPSREEMTKNQVSLTCLVKGFYPCDIAVEWESNGQPENNYKTTPPVLDSDGSFFLYSKLTVDKSRWQQGNVFSCSVMHEALHNHYTQKSLSLSPGK light: DIVMTQSPLSLPVTPGEPASISCRSSKSLLHSSGNTYLYWFLQKPGQSPQLLISRMSNLASGVPDRFSGSGSGTDFTLKISRVEAEDVGVYYCMQHLEYPYTFGGGTKVEIKRTVAAPSVFIFPPSDEQLKSGTASVVCLLNNFYPREAKVQWKVDNALQSGNSQESVTEQDSKDSTYSLSSTLTLSKADYEKHKVYACEVTHQGLSSPVTKSFNRGEC,human L-SIGN K562 EC50,L-SIGN,>10 µg/mL
"1G12 Parental (antibody, V domains shown) VH: QVQLQQSGPGLVQPSQSLSITCTVSGFSLTNYGVHWVRQSPGKGLEWLGVIWRGESTDYNAAFMSRLSVTKDDSKSQVFFKMNSLQADDTAIYYCARNGGSSGWYFDVWGTGTTVTVSS VL: DIQMTQTHKFMSTSVGDRVSITCKASQDVTSAVAWYQQTPGQSPNLLIYWTSTRHTGVPDRFTGSGSGTDYTLTISSVQAEDLALYYCQQHYTTPLTFGAGTKLELK",EC50,[2],0.07 µg/mL
same,EC50,[3],0.06 µg/mL
same,EC50,[4],0.02 µg/mL
